In paper PMC5955432:

Biological target: Skp1-FBW7 complex (UniProt Q969H0)
Experiment: ITC; MicroCal VP-ITC, 30°C; cell: 15 μM purified Skp1-FBW7 complex in 50 mM phosphate buffer, pH 7.4; syringe: 321 μM FIRΔexon2; 10 μL injections, 20 s, 150 s delay

Sequence of UniProt Q969H0 (Q969H0 whole entry, chain 1 of 2): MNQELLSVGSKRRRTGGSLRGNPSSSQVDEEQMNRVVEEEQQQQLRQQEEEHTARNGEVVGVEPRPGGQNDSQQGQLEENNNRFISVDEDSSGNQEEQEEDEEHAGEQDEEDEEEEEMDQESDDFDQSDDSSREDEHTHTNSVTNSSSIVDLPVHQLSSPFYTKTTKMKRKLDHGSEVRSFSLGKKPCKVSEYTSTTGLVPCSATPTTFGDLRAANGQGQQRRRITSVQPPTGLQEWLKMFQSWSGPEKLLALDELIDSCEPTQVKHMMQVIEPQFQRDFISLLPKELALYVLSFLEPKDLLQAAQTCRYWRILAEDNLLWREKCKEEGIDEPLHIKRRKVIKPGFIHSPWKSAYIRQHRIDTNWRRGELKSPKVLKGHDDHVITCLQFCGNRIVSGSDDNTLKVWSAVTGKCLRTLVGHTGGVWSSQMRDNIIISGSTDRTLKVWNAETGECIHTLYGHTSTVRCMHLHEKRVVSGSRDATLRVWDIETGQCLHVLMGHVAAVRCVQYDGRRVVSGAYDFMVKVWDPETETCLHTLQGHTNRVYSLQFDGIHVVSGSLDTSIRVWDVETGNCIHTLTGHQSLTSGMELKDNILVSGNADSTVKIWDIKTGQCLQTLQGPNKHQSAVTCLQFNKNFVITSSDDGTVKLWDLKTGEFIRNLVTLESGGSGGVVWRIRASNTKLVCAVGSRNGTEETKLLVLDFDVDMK
Sequence of UniProt Q969H0 (P63208 whole entry, chain 2 of 2, further chain): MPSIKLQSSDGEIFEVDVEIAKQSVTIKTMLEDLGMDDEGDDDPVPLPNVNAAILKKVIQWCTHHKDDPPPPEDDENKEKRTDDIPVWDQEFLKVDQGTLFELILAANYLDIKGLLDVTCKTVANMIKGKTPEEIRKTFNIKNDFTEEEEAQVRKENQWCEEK

Ka: > 1e+08 M⁻¹
Substance: FIRΔexon2 (alternative splicing variant of far upstream element binding protein 1 (FUBP1) interacting repressor, FIR / PUF60, lacking exon 2) (natural protein)
